Data from article PMC3267021, “The Molecular Basis for the Endocytosis of Small R-SNAREs by the Clathrin Adaptor CALM” (Cell, 2011).
Changes are numbered by the printed parent chain. Several values for one entry are separate records, joined by “and”; a condition that tells them apart may be missing. Identical values can stand only once.

T1: SNAP23, GST cleaved (human, UniProt O00161 1-211)
T1 construct: SNAP23, human; Construct pGEX 4T1 SNAP23 (human); source: E. coli BL21(DE3) pLysS, purified (glutathione sepharose, thrombin cleavage of GST); not shown: GST, N-terminal, cleaved
T1 sequence (looked up): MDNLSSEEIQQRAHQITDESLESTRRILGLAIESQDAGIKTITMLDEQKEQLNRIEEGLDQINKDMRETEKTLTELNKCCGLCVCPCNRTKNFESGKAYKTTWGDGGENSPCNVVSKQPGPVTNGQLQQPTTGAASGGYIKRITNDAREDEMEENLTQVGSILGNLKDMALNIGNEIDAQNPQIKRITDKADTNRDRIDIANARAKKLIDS

T2: His6MycCALM_(ANTH) (CALM ANTH domain, residues 1-289) (rat, UniProt O55012 1-289)
T2 construct: source: E. coli BL21(DE3) pLysS, purified (Ni2+-NTA agarose, S200 gel filtration)
T2 sequence (looked up): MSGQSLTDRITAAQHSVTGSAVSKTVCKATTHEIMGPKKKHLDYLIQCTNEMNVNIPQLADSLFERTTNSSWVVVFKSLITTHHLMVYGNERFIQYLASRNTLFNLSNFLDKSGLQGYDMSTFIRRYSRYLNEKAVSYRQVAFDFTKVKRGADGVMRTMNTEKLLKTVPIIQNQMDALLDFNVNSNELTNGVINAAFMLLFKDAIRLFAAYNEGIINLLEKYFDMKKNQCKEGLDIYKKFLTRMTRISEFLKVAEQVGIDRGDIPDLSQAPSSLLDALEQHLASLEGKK

T3: CALM_(ANTH(1-289)), GST cleaved (rat, UniProt O55012 1-289)
T3 construct: analyte of the liposome-based SPR and crystallised as 3ZYK; also called GST cleaved CALM_(ANTH); source: E. coli BL21(DE3) pLysS, purified (glutathione sepharose, thrombin cleavage of GST, S200 gel filtration); not shown: GST, N-terminal, cleaved
T3 sequence (looked up): T2 sequence (looked up)

T4: CALM_(ANTH(1-264)) part of the CALM_(ANTH(1-264)):VAMP8_((11-41)) chimera (rat, UniProt O55012 1-264)
T4 construct: PDB 3ZYM), VAMP8 11-41; also called CALM_(ANTH) in the chimeric complex; source: E. coli BL21(DE3) pLysS, purified (glutathione sepharose, thrombin cleavage of GST, S200 gel filtration); not shown: GST, N-terminal, cleaved
T4 sequence (looked up): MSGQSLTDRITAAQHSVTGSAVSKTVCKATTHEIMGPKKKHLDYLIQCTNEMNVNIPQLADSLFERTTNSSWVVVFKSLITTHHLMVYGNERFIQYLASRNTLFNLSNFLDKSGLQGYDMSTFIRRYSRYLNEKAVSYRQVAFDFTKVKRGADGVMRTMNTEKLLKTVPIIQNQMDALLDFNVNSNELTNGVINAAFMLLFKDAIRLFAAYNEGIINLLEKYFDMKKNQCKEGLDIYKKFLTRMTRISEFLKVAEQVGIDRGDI

B1: GST-VAMP8 (VAMP8 residues 1-76, full cytoplasmic portion) (domain or fragment, mouse, UniProt O70404 1-76, looked up)
chain: MEEASGSAGNDRVRNLQSEVEGVKNIMTQNVERILSRGENLDHLRNKTEDLEATSEHFKTTSQKVARKFWWKNVKM
notes: VAMP8, mouse, residues 1-76 (full cytoplasmic portion); Construct pGEX 4T2 VAMP8_(1-76); GST of pGEX vectors is N-terminal (surmise); also called VAMP8_(1-76); wt GSTVAMP8; source: E. coli BL21(DE3) pLysS, purified (glutathione sepharose, S200 gel filtration)
B2: VAMP8_(1-76)His12, GST cleaved (domain or fragment, mouse, UniProt O70404 1-76, looked up)
chain: B1 chain
notes: VAMP8, mouse, residues 1-76; Construct pGEX 4T2 VAMP8_((1-76))His12; also called His12-tagged VAMP8; His-tagged VAMP8; source: E. coli BL21(DE3) pLysS, purified (glutathione sepharose, thrombin cleavage of GST, Ni2+-NTA agarose, dialysis); not shown: GST, N-terminal, cleaved
B3: GSTVAMP8 K24AM27A (domain or fragment, mouse, UniProt O70404 1-76, looked up)
chain: B1 chain with K24A, M27A
notes: VAMP8, mouse, residues 1-76; pGEX 4T2 VAMP8_(1-76) (mouse) 'and mutants thereof'; also called K24AM27A VAMP8; Lys24AlaMet27Ala mutant of VAMP8; source: E. coli BL21(DE3) pLysS, purified (glutathione sepharose, S200 gel filtration)
B4: His6MycCALM_(ANTH) (CALM ANTH domain, residues 1-289) (domain or fragment)
chain: T2 sequence (looked up)
B5: VAMP8_((11-41)) part of the CALM_(ANTH(1-264)):VAMP8_((11-41)) chimera (domain or fragment, mouse, UniProt O70404 11-41, looked up)
chain: DRVRNLQSEVEGVKNIMTQNVERILSRGENL
notes: VAMP8, mouse, residues 11-41; also called VAMP8 helix; residues 11-41 of VAMP8; source: E. coli BL21(DE3) pLysS, purified (as part of the chimera)
B6: GST-VAMP3 (VAMP3 residues 1-81) (domain or fragment)
chain: MSTGVPSGSSAATGSNRRLQQTQNQVDEVVDIMRVNVDKVLERDQKLSELDDRADALQAGASQFETSAAKLKRKYWWKNCK
B7: GST-VAMP8_(10-41) (domain or fragment, mouse, UniProt O70404 10-41, looked up)
chain: NDRVRNLQSEVEGVKNIMTQNVERILSRGENL
notes: VAMP8, mouse, residues 10-41 (N-terminal half of the SNARE motif); Construct pGEX 4T2 VAMP8_((10-41)); also called residues 10-41 of VAMP8; source: E. coli BL21(DE3) pLysS, purified (glutathione sepharose, S200 gel filtration)
B8: GSTVAMP8 L44PL51P (domain or fragment, mouse, UniProt O70404 1-76, looked up)
chain: B1 chain with L44P, L51P
notes: VAMP8, mouse, residues 1-76; source: E. coli BL21(DE3) pLysS, purified (glutathione sepharose, S200 gel filtration)
B9: CALM_(ANTH(1-264)), GST cleaved (domain or fragment, rat, UniProt O55012 1-264, looked up)
chain: T4 sequence (looked up)
notes: source: E. coli BL21(DE3) pLysS, purified (glutathione sepharose, thrombin cleavage of GST, S200 gel filtration); not shown: GST, N-terminal, cleaved
B10: syntaxin3 (residues 195-253), GST cleaved (domain or fragment, human, UniProt Q13277 195-253, looked up)
chain: EGRHKDIVRLESSIKELHDMFMDIAMLVENQGEMLDNIELNVMHTVDHVEKARDETKKA
notes: syntaxin3, human, residues 195-253; Construct pGEX 4T1syntaxin3_((195-253)) (human); also called syntaxin3_((195-253)); Synatxin3(195–253); source: E. coli BL21(DE3) pLysS, purified (glutathione sepharose, thrombin cleavage of GST); not shown: GST, N-terminal, cleaved

Tests used:
SNAP23, GST cleaved = target: T1, SNAP23, GST cleaved; assay: pull-down; SNARE complex formation: GST-VAMP8 incubated with a three fold molar excess of SNAP23 and syntaxin3 at 4°C for 48 hr in 20 mM HEPES pH 7.4, 500 mM NaCl, 4 mM DTT, 0.5% NP-40; purified on glutathione-sepharose, then S200 gel filtration; details: both partners purified
[1] = target: T2, His6MycCALM_(ANTH) (CALM ANTH domain, …); assay: ITC; VPiTC; 2 mM His6MycCALM_(ANTH) (WT or mutant) or GST cleaved Epsin_(ENTH) titrated in 37 injections of 4-8 μL into 0.15 mM GST-SNARE in the cell; 100 mM HEPES pH 7.4, 150 mM NaCl, 4 mM DTT; legends give a representative run with SEM of the fit, the text the average of all runs; details: both partners purified
[2] = target: T3, CALM_(ANTH(1-289)), GST cleaved; assay: SPR; liposome-based SPR, Biacore 3000, L1 chip; PC/PE + 5% DGS-NTA(Ni) liposomes with captured His12-tagged VAMP8 (600RU); GST cleaved CALM_(ANTH) as analyte, 10 nM to 50 μM, one minute injections at 50 μl/min; PC/PE binding subtracted; details: both partners purified
GST-SNARE (WT or mutant) = assay: ITC; VPiTC; 2 mM His6MycCALM_(ANTH) (WT or mutant) or GST cleaved Epsin_(ENTH) titrated in 37 injections of 4-8 μL into 0.15 mM GST-SNARE in the cell; 100 mM HEPES pH 7.4, 150 mM NaCl, 4 mM DTT; legends give a representative run with SEM of the fit, the text the average of all runs
[3] = target: T4, CALM_(ANTH(1-264)) part of the …; assay: crystal structure; CALM_(ANTH(1-264)):VAMP8_((11-41)) chimera on one chain, GST cleaved; sitting drops at 16°C, 100 mM phosphate-citrate pH 4.2, 200 mM NaCl, 50% (v/v) PEG-200; 2.0 Å; PDB 3ZYM; details: both partners purified
[4] = target: the molecule itself; assay: SEC-MALS; analytical S200 10/300 column, 20 mM HEPES pH 7.4, 120 mM NaCl, 4 mM DTT, 0.5 mL/min, inline MALS
GSTVAMP8 K24AM27A = target: B3; assay: pull-down; SNARE complex formation: GST-VAMP8 incubated with a three fold molar excess of SNAP23 and syntaxin3 at 4°C for 48 hr in 20 mM HEPES pH 7.4, 500 mM NaCl, 4 mM DTT, 0.5% NP-40; purified on glutathione-sepharose, then S200 gel filtration; details: both partners purified
[5] = target: B1; assay: as above; details: both partners purified

Binder: B1
binding result (SNAP23, GST cleaved): binds | Kd [1]: ~18 µM and 17 µM and 20 µM

Binder: B2
Kd [2]: 0.9 µM

Binder: B3
binding result (SNAP23, GST cleaved): binds

Binder: B4
stoichiometry N (GST-SNARE (WT or mutant)): 0.9 to 1.1

Binder: B5
binding result [3]: binds

Binder: B6
Kd [1]: 46 µM

Binder: B7
Kd [1]: 20 µM

Binder: B8
Kd [1]: 23 µM

Binder: B9
stoichiometry N [4]: 2

Binder: B10
binding result (GSTVAMP8 K24AM27A): binds | binding result [5]: binds
